Patent publication US20170319655A1 (UNIVERSITY OF MARYLAND BALTIMORE, published 2017)

Assays:
[1] = target: T1, MUC1-ED on Ad-GFP-infected airway epithelial cells (A549 cells; SAECs) (human, UniProt P15941 24-1255, endogenous sialylated glycans (alpha2,3- and alpha2,6-linked sialic acid)); assay: Alexa Fluor 594-flagellin binding to Ad-GFP-infected A549 cells, 40 min at 4 C, fluorometry, Scatchard transformation; receptor named by the filing as MUC1-ED
T1 construct: Endogenous MUC1 of human airway ECs; also called Ad-GFP-infected ECs

[2] = target: T2, MUC1-ED on Ad-NEU1-infected airway epithelial cells (A549 cells; SAECs), desialylated by overexpressed NEU1 (human, UniProt P15941 24-1255, glycans desialylated by overexpressed NEU1); assay: Alexa Fluor 594-flagellin binding to Ad-NEU1-infected A549 cells, 40 min at 4 C, fluorometry, Scatchard transformation; receptor named by the filing as MUC1-ED
T2 construct: Endogenous MUC1 of human airway ECs that overexpress NEU1; also called Ad-NEU1-infected ECs

[3] = target: T2, MUC1-ED on Ad-NEU1-infected airway …; assay: Scatchard transformation of Alexa Fluor 594-flagellin binding to A549 cells

T2 sequence (P15941 24-1255 limits assumed): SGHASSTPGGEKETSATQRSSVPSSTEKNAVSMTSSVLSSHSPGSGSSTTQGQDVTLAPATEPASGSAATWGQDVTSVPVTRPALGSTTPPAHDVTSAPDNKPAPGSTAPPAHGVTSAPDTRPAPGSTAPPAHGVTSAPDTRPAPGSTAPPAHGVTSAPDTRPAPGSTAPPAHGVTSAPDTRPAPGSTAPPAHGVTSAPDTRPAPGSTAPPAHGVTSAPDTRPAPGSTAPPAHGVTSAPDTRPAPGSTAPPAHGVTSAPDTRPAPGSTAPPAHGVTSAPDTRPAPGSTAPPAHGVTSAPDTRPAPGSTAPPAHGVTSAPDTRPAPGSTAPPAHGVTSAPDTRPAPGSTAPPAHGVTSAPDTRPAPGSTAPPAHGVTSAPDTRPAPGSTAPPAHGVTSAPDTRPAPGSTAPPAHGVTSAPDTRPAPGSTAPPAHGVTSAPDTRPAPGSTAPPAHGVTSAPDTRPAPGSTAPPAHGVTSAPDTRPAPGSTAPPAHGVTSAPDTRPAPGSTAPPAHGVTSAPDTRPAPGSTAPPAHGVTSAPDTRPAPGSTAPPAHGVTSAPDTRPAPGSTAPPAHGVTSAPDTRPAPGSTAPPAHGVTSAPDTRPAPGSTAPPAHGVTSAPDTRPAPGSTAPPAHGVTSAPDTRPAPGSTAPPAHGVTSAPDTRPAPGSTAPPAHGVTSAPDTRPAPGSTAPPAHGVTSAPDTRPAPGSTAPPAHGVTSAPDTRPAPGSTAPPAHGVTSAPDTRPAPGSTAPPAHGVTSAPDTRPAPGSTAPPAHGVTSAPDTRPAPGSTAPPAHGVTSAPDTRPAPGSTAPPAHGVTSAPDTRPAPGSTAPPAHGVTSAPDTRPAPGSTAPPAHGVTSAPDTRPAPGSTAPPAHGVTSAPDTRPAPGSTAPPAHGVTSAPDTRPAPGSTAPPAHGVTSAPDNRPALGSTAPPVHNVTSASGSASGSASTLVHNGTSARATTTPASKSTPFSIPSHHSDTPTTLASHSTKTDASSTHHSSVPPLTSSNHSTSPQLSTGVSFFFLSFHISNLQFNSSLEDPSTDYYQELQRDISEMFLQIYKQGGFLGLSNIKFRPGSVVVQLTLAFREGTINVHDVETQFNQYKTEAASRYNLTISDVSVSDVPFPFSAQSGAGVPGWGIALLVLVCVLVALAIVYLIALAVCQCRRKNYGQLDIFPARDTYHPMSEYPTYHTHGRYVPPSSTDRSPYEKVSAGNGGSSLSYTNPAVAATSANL
T1 sequence (P15941 24-1255 limits assumed): as above

B1: Pseudomonas aeruginosa (Pa) flagellin purified from Pa strain PA01, Alexa Fluor 594-labeled (ligand)
chain: MALTVNTNIASLNTQRNLNASSNDLNTSLQRLTTGYRINSAKDDAAGLQISNRLSNQISGLNVATRNANDGISLAQTAEGALQQSTNILQRIRDLALQSANGSNSDADRAALQKEVAAQQAELTRISDTTTFGGRKLLDGSFGTTSFQVGSNAYETIDISLQNASASAIGSYQVGSNGAGTVASVAGTATASGIASGTVNLVGGGQVKNIAIAAGDSAKAIAEKMDGAIPNLSARARTVFTADVSGVTGGSLNFDVTVGSNTVSLAGVTSTQDLADQLNSNSSKLGITASINDKGVLTITSATGENVKFGAQTGTATAGQVAVKVQGSDGKFEAAAKNVVAAGTAATTTIVTGYVQLNSPTAYSVSGTGTQASQVFGNASAAQKSSVASVDISTADGAQNAIAVVDNALAAIDAQRADLGAVQNRFKNTIDNLTNISENATNARSRIKDTDFAAETAALSKNQVLQQAGTAILAQANQLPQAVLSLLR
modifications: Alexa Fluor 594 label (site not stated)
notes: also called purified flagellin; Alexa Fluor 594-flagellin
For B1, the Kd [1] was 7.35 nM, the Kd [2] was 2.54 nM and the “fold reduction in Kd against Ad-GFP-infected ECs” value [3] was 2.9 fold.
